Assays:
[1] = molecular target: HIV-1 92TH021 Env (CRF01_AE pseudovirus) (HIV-1); test: cell-based or functional assay
[2] = molecular target: HIV-1 93IN905 Env (clade C pseudovirus) (HIV-1); test: cell-based or functional assay
[3] = molecular target: HIV-1 APV-13 Env (clade B pseudovirus) (HIV-1); test: cell-based or functional assay
[4] = molecular target: HIV-1 APV-6 Env (clade B pseudovirus) (HIV-1); test: cell-based or functional assay
[5] = molecular target: HIV-1 APV-17 Env (clade B pseudovirus) (HIV-1); test: cell-based or functional assay
[6] = molecular target: HIV-1 IAVI-C18 Env (clade C pseudovirus) (HIV-1); test: cell-based or functional assay
[7] = molecular target: HIV-1 IAVI-C3 Env (clade C pseudovirus) (HIV-1); test: cell-based or functional assay
[8] = molecular target: HIV-1 JRCSF Env (clade B pseudovirus) (HIV-1, UniProt P20871 32-848); test: cell-based or functional assay
[9] = molecular target: HIV-1 92UG024 Env (clade D pseudovirus) (HIV-1); test: cell-based or functional assay
[10] = molecular target: HIV-1 92BR020 Env (clade B pseudovirus) (HIV-1); test: cell-based or functional assay
[11] = molecular target: aMLV envelope (negative control pseudovirus); test: cell-based or functional assay
[12] = molecular target: HIV-1 93UG077 Env (clade A pseudovirus) (HIV-1); test: cell-based or functional assay
[13] = molecular target: HIV-1 92UG005 Env (clade D pseudovirus) (HIV-1); test: cell-based or functional assay
[14] = molecular target: HIV-1 CMU02 Env (CRF01_AE pseudovirus) (HIV-1); test: cell-based or functional assay
[15] = molecular target: HIV-1 IAVI-C22 Env (clade C pseudovirus) (HIV-1); test: cell-based or functional assay
[16] = molecular target: HIV-1 92RW020 Env (clade A pseudovirus) (HIV-1); test: cell-based or functional assay
[17] = molecular target: HIV-1 94UG103 Env (clade A pseudovirus) (HIV-1); test: cell-based or functional assay
recombinant gp41HxB2 = molecular target: T1, recombinant gp41HxB2 (HIV-1 clone HxB2, UniProt P04578 541-682); test: ELISA on recombinant gp41
T1 construct: domain: gp41

[18] = molecular target: T2, Recombinant gp41 generated with sequences derived from HxB2 clone of HIV-1, expressed in Pichia pastoris (HIV-1 clone HxB2, UniProt P04578 541-682); test: ELISA, B cell culture supernatant on directly immobilised recombinant gp41
T2 construct: domain: gp41; also called gp41HxB2

B1: 1456_P20 (PG20) (antibody, human IgG1, kappa, V domains shown)
VH: QVRLVQSGPEVKKPGSSVTVSCQASGGTFSSYAFTWVRQAPGQGLEWLGMVTPIFGEAKYSQRFEGRVTITADESTSTTSIELRGLTSEDTAIYYCARDRRAVPIATDNWLDPWGQGTLVTVSS
VL: DIQLTQSPSSLSASVGDRVSITCRASQTINNYLNWYQQTPGKAPKLLIYGASNLQNGVPSRFSGSGSGTDFTLTISSLQPEDFATYYCQQSFSTPRTFGQGTRLDIKR
IC50 (µg/mL), pseudovirus neutralization [1]: > 50 µg/mL
IC50 (µg/mL), pseudovirus neutralization [2]: > 50 µg/mL
IC50 (µg/mL), pseudovirus neutralization [3]: > 50 µg/mL
IC50 (µg/mL), pseudovirus neutralization [4]: 25.8 µg/mL
IC50 (µg/mL), pseudovirus neutralization [5]: > 50 µg/mL
IC50 (µg/mL), pseudovirus neutralization [6]: > 50 µg/mL
IC50 (µg/mL), pseudovirus neutralization [7]: > 50 µg/mL
IC50 (µg/mL), pseudovirus neutralization [8]: > 50 µg/mL
IC50 (µg/mL), pseudovirus neutralization [9]: > 50 µg/mL
IC50 (µg/mL), pseudovirus neutralization [10]: > 50 µg/mL
IC50 (µg/mL), pseudovirus neutralization [11]: > 50 µg/mL
IC50 (µg/mL), pseudovirus neutralization [12]: > 50 µg/mL
IC50 (µg/mL), pseudovirus neutralization [13]: > 50 µg/mL
IC50 (µg/mL), pseudovirus neutralization [14]: > 50 µg/mL
IC50 (µg/mL), pseudovirus neutralization [15]: > 50 µg/mL
IC50 (µg/mL), pseudovirus neutralization [16]: 50 µg/mL
IC50 (µg/mL), pseudovirus neutralization [17]: > 50 µg/mL

B2: 1460_G14 (PGG14) (antibody, human IgG1, kappa, V domains shown)
VH: QVLLVQSGTEVKKPGSSVKVSCQASGGAFSSYAFSWVRQAPGQGLEWMGMITPVFGETKYAPRFQGRLTLTAEESLSTTYMELRSLTSDDTAFYYCTRDRRVVPMATDNWLDPWGQGTLVTVSS
VL: DIQLTQSPSSLSASVGDRVTVTCRASQTIHTYLNWYQQIPGKAPKLLIYGASTLQSGVPSRFSGSGSGTDFTLTINSLQPEDFATYYCQQSYSTPRTFGQGTRLDIKR
binding result (recombinant gp41HxB2): no binding

B3: B cell culture supernatant of well 1456 P20 (source of antibody 1456_P20 (PG20)) (antibody, V domains shown)
VH: QVRLVQSGPEVKKPGSSVTVSCQASGGTFSSYAFTWVRQAPGQGLEWLGMVTPIFGEAKYSQRFEGRVTITADESTSTTSIELRGLTSEDTAIYYCARDRRAVPIATDNWLDPWGQGTLVTVSS
VL: DIQLTQSPSSLSASVGDRVSITCRASQTINNYLNWYQQTPGKAPKLLIYGASNLQNGVPSRFSGSGSGTDFTLTISSLQPEDFATYYCQQSFSTPRTFGQGTRLDIK
binding result [18]: no binding

B4: 1460_G14 (PGG14) (antibody, human IgG1, kappa, V domains shown)
VH: QVLLVQSGTEVKKPGSSVKVSCQASGGAFSSYAFSWVRQAPGQGLEWMGMITPVFGETKYAPRFQGRLTLTAEESLSTTYMELRSLTSDDTAFYYCTRDRRVVPMATDNWLDPWGQGTLVTVSS
VL: DIQLTQSPSSLSASVGDRVTVTCRASQTIHTYLNWYQQIPGKAPKLLIYGASTLQSGVPSRFSGSGSGTDFTLTINSLQPEDFATYYCQQSYSTPRTFGQGTRLDIKR
IC50 (µg/mL), pseudovirus neutralization [1]: > 50 µg/mL
IC50 (µg/mL), pseudovirus neutralization [2]: > 50 µg/mL
IC50 (µg/mL), pseudovirus neutralization [3]: > 50 µg/mL
IC50 (µg/mL), pseudovirus neutralization [4]: > 50 µg/mL
IC50 (µg/mL), pseudovirus neutralization [5]: > 50 µg/mL
IC50 (µg/mL), pseudovirus neutralization [6]: > 50 µg/mL
IC50 (µg/mL), pseudovirus neutralization [7]: > 50 µg/mL
IC50 (µg/mL), pseudovirus neutralization [8]: > 50 µg/mL
IC50 (µg/mL), pseudovirus neutralization [9]: > 50 µg/mL
IC50 (µg/mL), pseudovirus neutralization [10]: > 50 µg/mL
IC50 (µg/mL), pseudovirus neutralization [11]: > 50 µg/mL
IC50 (µg/mL), pseudovirus neutralization [12]: > 50 µg/mL
IC50 (µg/mL), pseudovirus neutralization [13]: > 50 µg/mL
IC50 (µg/mL), pseudovirus neutralization [14]: > 50 µg/mL
IC50 (µg/mL), pseudovirus neutralization [15]: > 50 µg/mL
IC50 (µg/mL), pseudovirus neutralization [16]: > 50 µg/mL
IC50 (µg/mL), pseudovirus neutralization [17]: > 50 µg/mL

B5: 1456_P20 (PG20) (antibody, human IgG1, kappa, V domains shown)
VH: QVRLVQSGPEVKKPGSSVTVSCQASGGTFSSYAFTWVRQAPGQGLEWLGMVTPIFGEAKYSQRFEGRVTITADESTSTTSIELRGLTSEDTAIYYCARDRRAVPIATDNWLDPWGQGTLVTVSS
VL: DIQLTQSPSSLSASVGDRVSITCRASQTINNYLNWYQQTPGKAPKLLIYGASNLQNGVPSRFSGSGSGTDFTLTISSLQPEDFATYYCQQSFSTPRTFGQGTRLDIKR
binding result (recombinant gp41HxB2): no binding

B6: B cell culture supernatant of well 1443 C16 (source of antibody 1443_C16 (PG16) (TCN-116)) (antibody, V domains shown)
VH: QEQLVESGGGVVQPGGSLRLSCLASGFTFHKYGMHWVRQAPGKGLEWVALISDDGMRKYHSDSMWGRVTISRDNSKNTLYLQFSSLKVEDTAMFFCAREAGGPIWHDDVKYYDFNDGYYNYHYMDVWGKGTTVTVSS
VL: QSALTQPASVSGSPGQTITISCNGTSSDVGGFDSVSWYQQSPGKAPKVMVFDVSHRPSGISNRFSGSKSGNTASLTISGLHIEDEGDYFCSSLTDRSHRIFGGGTKVTVL
binding result [18]: no binding

B7: 1495_C14 (PGC14) (antibody, human IgG1, lambda, V domains shown)
VH: DGHLVQSGVEVKKTGATVKISCKVSGYSFIDYYLHWVQRAPGKGLEWVGLIDPENGEARYAEKFQGRVTIIADTSIDTGYMEMRSLKSEDTAVYFCAAGAVGADSGSWFDPWGQGTLVTVSS
VL: SYELTQPPSVSVSPGQTASITCSGSKLGDKYVSWYQLRPGQSPILVMYENDRRPSGIPERFSGSNSGDTATLTISGTQALDEADFYCQAWETTTTTFVFFGGGTQLTVLG
IC50 (µg/mL), pseudovirus neutralization [1]: > 50 µg/mL
IC50 (µg/mL), pseudovirus neutralization [2]: > 50 µg/mL
IC50 (µg/mL), pseudovirus neutralization [3]: > 50 µg/mL
IC50 (µg/mL), pseudovirus neutralization [4]: 7.41 µg/mL
IC50 (µg/mL), pseudovirus neutralization [5]: > 50 µg/mL
IC50 (µg/mL), pseudovirus neutralization [6]: > 50 µg/mL
IC50 (µg/mL), pseudovirus neutralization [7]: 9.5 µg/mL
IC50 (µg/mL), pseudovirus neutralization [8]: > 50 µg/mL
IC50 (µg/mL), pseudovirus neutralization [9]: > 50 µg/mL
IC50 (µg/mL), pseudovirus neutralization [10]: 0.64 µg/mL
IC50 (µg/mL), pseudovirus neutralization [11]: > 50 µg/mL
IC50 (µg/mL), pseudovirus neutralization [12]: > 50 µg/mL
IC50 (µg/mL), pseudovirus neutralization [13]: > 50 µg/mL
IC50 (µg/mL), pseudovirus neutralization [14]: > 50 µg/mL
IC50 (µg/mL), pseudovirus neutralization [15]: > 50 µg/mL
IC50 (µg/mL), pseudovirus neutralization [16]: 28.6 µg/mL
IC50 (µg/mL), pseudovirus neutralization [17]: > 50 µg/mL

B8: 1495_C14 (PGC14) (antibody, human IgG1, lambda, V domains shown)
VH: DGHLVQSGVEVKKTGATVKISCKVSGYSFIDYYLHWVQRAPGKGLEWVGLIDPENGEARYAEKFQGRVTIIADTSIDTGYMEMRSLKSEDTAVYFCAAGAVGADSGSWFDPWGQGTLVTVSS
VL: SYELTQPPSVSVSPGQTASITCSGSKLGDKYVSWYQLRPGQSPILVMYENDRRPSGIPERFSGSNSGDTATLTISGTQALDEADFYCQAWETTTTTFVFFGGGTQLTVLG
binding result (recombinant gp41HxB2): no binding

B9: B cell culture supernatant of well 1495 C14 (source of antibody 1495_C14 (PGC14)) (antibody, V domains shown)
VH: DGHLVQSGVEVKKTGATVKISCKVSGYSFIDYYLHWVQRAPGKGLEWVGLIDPENGEARYAEKFQGRVTIIADTSIDTGYMEMRSLKSEDTAVYFCAAGAVGADSGSWFDPWGQGTLVTVSS
VL: SYELTQPPSVSVSPGQTASITCSGSKLGDKYVSWYQLRPGQSPILVMYENDRRPSGIPERFSGSNSGDTATLTISGTQALDEADFYCQAWETTTTTFVFFGGGTQLTVL
binding result [18]: no binding

B10: B cell culture supernatant of well 1496 C9 (source of antibody 1496_C09 (PG9) (TCN-109)) (antibody, V domains shown)
VH: QRLVESGGGVVQPGSSLRLSCAASGFDFSRQGMHWVRQAPGQGLEWVAFIKYDGSEKYHADSVWGRLSISRDNSKDTLYLQMNSLRVEDTATYFCVREAGGPDYRNGYNYYDFYDGYYNYHYMDVWGKGTTVTVSS
VL: QSALTQPASVSGSPGQSITISCNGTSNDVGGYESVSWYQQHPGKAPKVVIYDVSKRPSGVSNRFSGSKSGNTASLTISGLQAEDEGDYYCKSLTSTRRRVFGTGTKLTVL
binding result [18]: no binding

B11: B cell culture supernatant of well 1460 G14 (source of antibody 1460_G14 (PGG14)) (antibody, V domains shown)
VH: QVLLVQSGTEVKKPGSSVKVSCQASGGAFSSYAFSWVRQAPGQGLEWMGMITPVFGETKYAPRFQGRLTLTAEESLSTTYMELRSLTSDDTAFYYCTRDRRVVPMATDNWLDPWGQGTLVTVSS
VL: DIQLTQSPSSLSASVGDRVTVTCRASQTIHTYLNWYQQIPGKAPKLLIYGASTLQSGVPSRFSGSGSGTDFTLTINSLQPEDFATYYCQQSYSTPRTFGQGTRLDIK
binding result [18]: no binding

From patent US20240132578A1 (published 2024)
